{"source": "patent US11708423B2", "about": "“Chimeric engulfment receptor molecules and methods of use” (CERO THERAPEUTICS, INC., priority 2017, dated 2023)", "key": {"[1]": {"tested_on": "HCC827 lung adenocarcinoma cells", "experiment": "MTT viability and bright field microscopy of HCC827 cells with CER T cells and Osimeritinib", "assay_type": "cell-based", "conditions": "Osimeritinib 1 nM, 48 hours, CD4+ T cells", "text": "CD4+ T cells were transduced with lentiviral vectors encoding various CERs (CER21, CER108, CER104, CER129, CER27, CER120, CER122, CER123, CER124, or CER126). Mock transduced (vector only) CD4+ T cells were used as control. CER21 comprises a Tim4 binding domain, Tim4 transmembrane domain, and an engulfment signaling domain comprising a primary engulfment signaling domain comprising a TLR8 signaling domain. CER21 has a polypeptide sequence as set forth in SEQ ID NO:88. CER108 has a polypeptide sequence as set forth in SEQ ID NO:137 and comprises a Tim4 binding domain, Tim4 transmembrane domain, and an engulfment signaling domain comprising a primary engulfment signaling domain comprising a DAP12 signaling domain and a secondary engulfment signaling domain comprising a TLR8 signaling domain. CER104 has a polypeptide sequence as set forth in SEQ ID NO:133 and comprises a Tim4 binding domain, Tim4 transmembrane domain, and an engulfment signaling domain comprising a primary engulfment signaling domain comprising a TLR8 signaling domain and a secondary engulfment signaling domain comprising a DAP12 signaling domain. CER129 has a polypeptide sequence as set forth in SEQ ID NO:177 and comprises a Tim4 binding domain, Tim4 transmembrane domain, and an engulfment signaling domain comprising a primary engulfment signaling domain comprising a TLR8 signaling domain and a secondary engulfment signaling domain comprising a TRAF2 signaling domain. CER27 comprises a Tim4 binding domain, Tim4 transmembrane domain, and an engulfment signaling domain comprising a primary engulfment signaling domain comprising a TLR2 signaling domain. CER27 has a polypeptide sequence as set forth in SEQ ID NO:93. […] T cells were washed away, and the number of viable HCC827 cells was quantified using a calorimetric MTT assay. […]"}, "[2]": {"tested_on": "H1975 lung adenocarcinoma cells", "experiment": "LDH assay, H1975 cells, 48 hours co-culture with 1 μM Osimeritinib", "assay_type": "cell-based", "conditions": "E:T 1:1, 48 hours, CD4+ T cells", "method_in_brief": "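H1975 EGFR-mutant cells were co-cultured 48 h with CER-expressing or mock-transduced CD4+ T cells at 1:1 effector:target, plus 1 μM osimertinib. After T cells were washed away, viable H1975 cells were quantified by colorimetric LDH assay in triplicate, expressed as % of control.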"}}, "data": [{"molecule": "CER104: Tim4 binding and transmembrane domains, TLR8 primary and DAP12 secondary signaling domains; SEQ ID NO:133 (protein, CER104 protein) MSKGLLLLWLVTELWWLYLTPAASEDTIIGFLGQPVTLPCHYLSWSQSRNSMCWGKGSCPNSKCNAELLRTDGTRIISRKSTKYTLLGKVQFGEVSLTISNTNRGDSGVYCCRIEVPGWFNDVKKNVRLELRRATTTKKPTTTTRPTTTPYVTTTTPELLPTTVMTTSVLPTTTPPQTLATTAFSTAVTTCPSTTPGSFSQETTKGSAFTTESETLPASNHSQRSMMTISTDIAVLRPTGSNPGILPSTSQLTTQKTTLTTSESLQKTTKSHQINSRQTILIIACCVGFVLMVLLFLAFLHHLFYWDVWFIYNVCLAKVKGYRSLSTSQTFYDAYISYDTKDASVTDWVINELRYHLEESRDKNVLLCLEERDWDPGLAIIDNLMQSINQSKKTVFVLTKKYAKSWNFKTAFYLALQRLMDENMDVIIFILLEPVLQHSQYLRLRQRICKSSILQWPDNPKAEGLFWQTLRNVVLTENDSRYNNMYVDSIKQYYFLGRLVPRGRGAAEAATRKQRITETESPYQELQGQRSDVYSDLNTQRPYYK", "values": [{"measurement": "bright field microscopy of HCC827 co-culture", "setting": "[1]", "value": "cluster of dead HCC827 EGFR^+ cells surrounded by phagocytic CER104^+ T cells"}, {"measurement": "killing of H1975 cells (LDH)", "setting": "[2]", "value": "synergistic killing of H1975 lung adenocarcinoma cells upon EGFR inhibition"}]}, {"molecule": "CER122: Tim4 binding and transmembrane domains, TLR2 primary and DAP12 secondary signaling domains; SEQ ID NO:149 (protein, CER122 protein) MSKGLLLLWLVTELWWLYLTPAASEDTIIGFLGQPVTLPCHYLSWSQSRNSMCWGKGSCPNSKCNAELLRTDGTRIISRKSTKYTLLGKVQFGEVSLTISNTNRGDSGVYCCRIEVPGWFNDVKKNVRLELRRATTTKKPTTTTRPTTTPYVTTTTPELLPTTVMTTSVLPTTTPPQTLATTAFSTAVTTCPSTTPGSFSQETTKGSAFTTESETLPASNHSQRSMMTISTDIAVLRPTGSNPGILPSTSQLTTQKTTLTTSESLQKTTKSHQINSRQTILIIACCVGFVLMVLLFLAFLHRFHGLWYMKMMWAWLQAKRKPRKAPSRNICYDAFVSYSERDAYWVENLMVQELENFNPPFKLCLHKRDFIPGKWIIDNIIDSIEKSHKTVFVLSENFVKSEWCKYELDFSHFRLFDENNDAAILILLEPIEKKAIPQRFCKLRKIMNTKTYLEWPMDEAQREGFWVNLRAAIKSYFLGRLVPRGRGAAEAATRKQRITETESPYQELQGQRSDVYSDLNTQRPYYK", "values": [{"measurement": "bright field microscopy of HCC827 co-culture", "setting": "[1]", "value": "cluster of dead HCC827 EGFR^+ cells surrounded by phagocytic CER122^+ T cells"}, {"measurement": "killing of H1975 cells (LDH)", "setting": "[2]", "value": "synergistic killing of H1975 lung adenocarcinoma cells upon EGFR inhibition"}]}, {"molecule": "CER21: Tim4 binding and transmembrane domains, TLR8 signaling domain; SEQ ID NO:88 (protein, CER21 chimeric engulfment receptor) MSKGLLLLWLVTELWWLYLTPAASEDTIIGFLGQPVTLPCHYLSWSQSRNSMCWGKGSCPNSKCNAELLRTDGTRIISRKSTKYTLLGKVQFGEVSLTISNTNRGDSGVYCCRIEVPGWFNDVKKNVRLELRRATTTKKPTTTTRPTTTPYVTTTTPELLPTTVMTTSVLPTTTPPQTLATTAFSTAVTTCPSTTPGSFSQETTKGSAFTTESETLPASNHSQRSMMTISTDIAVLRPTGSNPGILPSTSQLTTQKTTLTTSESLQKTTKSHQINSRQTILIIACCVGFVLMVLLFLAFLHHLFYWDVWFIYNVCLAKVKGYRSLSTSQTFYDAYISYDTKDASVTDWVINELRYHLEESRDKNVLLCLEERDWDPGLAIIDNLMQSINQSKKTVFVLTKKYAKSWNFKTAFYLALQRLMDENMDVIIFILLEPVLQHSQYLRLRQRICKSSILQWPDNPKAEGLFWQTLRNVVLTENDSRYNNMYVDSIKQY", "values": [{"measurement": "bright field microscopy of HCC827 co-culture", "setting": "[1]", "value": "cluster of dead HCC827 EGFR^+ cells surrounded by phagocytic CER21^+ T cells"}, {"measurement": "killing of H1975 cells (LDH)", "setting": "[2]", "value": "synergistic killing of H1975 lung adenocarcinoma cells upon EGFR inhibition"}]}]}
